One data set deals with T1, human β2-AR (Homo sapiens, UniProt P07550).
T1 construct: host or cells: CHO-K1
In words: [125I] ZAG binding to crude membranes of CHO-K1 β2 cells. Particulars: single freeze/thaw cycle. The protocol: [^125I] labelling of ZAG. One iodo bead that had been washed and dried was incubated with Na [^125I] (1 mCi per 100 μg protein) for 5 min in PBS, then ZAG (100 μg protein) was added and left for a further 15 min. The reaction was terminated by removal of the iodo bead, while free Na [^125I] was removed using a Sephadex G25 column eluted with 0.1MNaI. The [^125I] ZAG was concentrated against PBS using a Microcon microconcentrator with a filter cut-off of Mr 10,000. The specific activity of the [^125I] ZAG was 8 Cimg protein^1.
For binding studies cells were sonicated in 2 mM Tris HCl, pH7.5, containing […] and crude total membranes were pelleted by centrifugation (13,000 g; 15 min) at 4° C. Binding studies were carried out at 37° C. by incubating membranes (500 μg protein) in 0.4 ml 50 mM Tris HCl, pH 7.5, containing 0.5 mM MgCl2 for 60 min with various concentrations of [^125I] ZAG (3,000 to 15,000 cpm) in the absence or presence of 100 μM non-labelled ZAG. The membranes were then precipitated by centrifugation at 13000 g for 20 min, the supernatant was removed and the [^125I] bound to the pellet was quantitated using a Packard Corbra Model 5005 Auto-gamma counter. Binding was analysed using non-linear regression analysis (GraphPad Prism, Version 5.04). Specific binding was regarded as the amount of labelled ZAG displaced by non-radioactive ZAG.

Data set [1] concerns skeletal muscle of ob/ob mice. In words: Protein synthesis and degradation in skeletal muscle of ZAG-treated ob/ob mice. Format: in vivo, mouse. The settings on record: ob/ob mice treated 5 days. The protocol: Protein Synthesis and Degradation in Muscle. The method for the determination of protein synthesis and degradation in muscle has been previously described (Smith, K. L. & Tisdale, M. J. Increased protein degradation and decreased protein synthesis in skeletal muscle during cancer cachexia. Br. J. Cancer 67, 680-685 (1993)). […] Protein synthesis was measured by the incorporation of L-[2,6-^3H] phenylalanine (640 MBq) into acid-insoluble material using a 2 h period in which the muscles were incubated at 37° C. in RPMI/640 without phenol red and saturated with O2:CO2 (19:1). Muscles were then rinsed in non-radioactive medium, blotted and homogenised in 2% perchloric acid. The rate of protein synthesis was calculated by dividing the amount of protein-bound radioactivity by the amount of acid soluble radioactivity. Protein degradation was determined by the release of tyrosine from gastrocnemius muscle over a 2 h period in 3 ml of oxygenated Krebs-Henseleit buffer, pH7.4, containing 5 mM glucose and 0.5 mM cycloheximide.

Data set [2] has as its system gastrocnemius muscle of ob/ob mice. As to the kind of experiment: Proteasome activity and Western blots in gastrocnemius muscle of ZAG-treated ob/ob mice. It counts as in vivo, mouse. Here is the method: Measurement of Proteasome and Caspase Activity. […] Gastrocnemius muscle was homogenised in 20 mM Tris, pH7.5, 2 mM ATP, 5 mM MgCl2 and 50 mM DTT at 4° C., sonicated and centrifuged at 18,000 g for 10 min at 4° C. to pellet insoluble material, and the resulting supernatant was used to measure ‘chymotrypsin-like’ enzyme activity in the presence or absence of the proteasome inhibitor lactacystin (10 μM). Only lactacystin suppressible activity was considered as true proteasome activity. The activity of caspase-3 was determined by the release of AMC from AcAsp.Gly.Val.Asp.AMC (SEQ ID NO: 3), and the activity of caspase-8 was determined by the release of 7-amino-4-trifluromethylcoumarin (AFC) from the specific substrate Z-Ile Glu Phe Thr Asp-AFC (SEQ ID NO: 4), using the supernatant from above (50 μg protein), and either the caspase-3 or -8 substrate (10 μM) for 1 h at 37° C., in the presence or absence of the caspase-3 (AcAspGluValAsp-CHO) (SEQ ID NO: 5) or caspase-8 (Ile Glu Phe Thr Asp-CHO) (SEQ ID NO: 6) inhibitors (100 μM). The increase in fluorescence due to […] was determined as above, while the increase in fluorescence due to AFC was measured with an excitation wavelength of 400 nm and an emission wavelength of 505 nm. The difference in values in the absence and presence of the caspase inhibitors was a measure of activity.
Western Blot Analysis. Freshly excised gastrocnemius muscles were washed in PBS and lysed in PHOSPHOSAFE™ Extraction Reagent for 5 min at room temperature followed by sonication at 4° C. The lysate was cleared by centrifugation at 18,000 g for 5 min at 4° C. and samples of cytosolic protein (5 μg) were resolved on 12% sodium dodecyl sulfate-polyacrylamide gel electrophoresis at 180V for approximately 1 h. This was followed by transference to 0.45 μm nitrocellulose membranes, which were then blocked with 5% Marvel in Tris-buffered saline, pH 7.5, at 4° C. overnight. Both primary and secondary antibodies were used at a dilution of 1:1000 except anti-myosin (1:250). Incubation was for 1 h at room temperature, and development was by ECL. Blots were scanned by a densitometer to quantify differences.
A general note: In western blotting, separated proteins are transferred to a membrane and probed.

For data set [3], the system named is ob/ob mice. In words: Interval / long-term administration of ZAG in ob/ob mice (pilot study). It counts as in vivo, mouse. The protocol:
While not wanting to be limited by theory, it may be that the subjects are receiving too much ZAG or that there is receptor desensitization as is seen with TNF. A pilot study was performed with 2 mice in each group to determine optimal scheduling of ZAG delivery.

The test system of data set [4] is WAT, BAT and gastrocnemius muscle of male Wistar rats. In words: Western blots of tissues from rats treated with ZAG. It counts as in vivo, rat. Here is the method: Samples of epididymal WAT, BAT and gastrocnemius muscle excised from rats treated with ZAG or PBS for 5 days were homogenized in 0.25M sucrose, 1 mM HEPES, pH 7.0 and […], and then centrifuged for 10 min at 4,500 rpm. Samples of cytosolic protein (10 μg) were resolved on 12% sodium dodecylsulphate polyacrylamide gel electrophoresis and the proteins were then transferred onto 0.45 μm nitrocellulose membranes, which had been blocked with 5% Marvel in Tris-buffered saline, pH 7.5, at 4° C. overnight, and following four 15 min washes with 0.1% Tween in PBS, incubation with the secondary antibody was performed for 1 h at room temperature. Development was by ECL.

The test system of data set [5] is ob/ob mice. As to the kind of experiment: Body weight loss by route of administration of ZAG in ob/ob mice. Format: in vivo, mouse. Particulars: intraveneous, 50 ug/day.

B1: ZAG: recombinant full length human zinc-α2-glycoprotein (SEQ ID NO: 1) secreted by transfected HEK293F cells; lipid mobilizing factor (protein, listed as Homo sapiens)
chain: QENQDGRYSLTYIYTGLSKHVEDVPAFQALGSLNDLQFFRYNSKDRKSQPMGLWRQVEGMEDWKEDSQLQKAREDMETLKDIVEYYNDSNGSHVLQGRFGCEIENNRSSGAFWKYYYDGKDYIEFNKEIPAWVPFDPAAQITKQKWEAEPVYVQRAKAYLEEECPATLRKYLKYSKNILDRQDPPSVVVTSHQAPGEKKKLKCLAYDFYPGKIDVHWTRAGQVQEPELRGDVLHNGNGTYQSWVVVAVPPQDTAPYSCHVQHSSLAQPLVVPWEAS
For B1, the “effect of freeze-thawing on binding to β2-AR” value in the data set with human β2-AR is “eliminated binding”. For the same molecule, in data set [1], the “decrease in protein degradation” value worked out at 60% and the “protein synthesis in soleus muscle” value is listed as “over a two-fold increase”. For the same molecule, in data set [2] (gastrocnemius muscle), the “expression of 20S proteasome α-subunits and p42” value was “decreased expression”; the “phosphorylated forms of PKR and eIF2α” value was “reduction in the level of phosphorylated forms”; the “proteasome 'chymotrypsin-like' enzyme activity” value is reported as “decreased activity”. In addition, in data set [2] (skeletal muscle), the myosin levels entry is reported as “increased”. Moreover, in the data set with ob/ob mice [3] (from a 90 g mouse, in about 3 weeks), the weight loss was 8 to 10 g. The “outcome of long-term daily administration” value in the data set on ob/ob mice [3] (ob/ob mice) is “cessation of weight loss”. Moreover, in data set [4] (rats), the “expression of ATGL and HSL in epididymal adipose tissue” value was “two-fold increase”; the “expression of UCP-1 and -3 in BAT and WAT” value was “almost two-fold”; the “phosphorylated forms of PKR and eIF2 α-subunit in gastrocnemius muscle” value is given as “significant reduction”. In addition, the “expression of ZAG in skeletal muscle, WAT and BAT” value in data set [4] (rats treated for 10 days) is given as “significantly increased”. Moreover, in the data set with ob/ob mice [5] (8 Days), the “% of i.v. loss over the same time” value came to 100%. Besides, the “% of i.v. loss over the same time” value in the data set with ob/ob mice [5] (20 Days) was 100%. Besides, the Body weight loss with ob/ob mice [5] (70 g ob/ob mice, 8 Days) is on record as −6.0%.

For the origin of these results see patent US10077295B2, “Glycoproteins having lipid mobilizing properties and therapeutic uses thereof” (Aston University, priority 2010, dated 2018).
